Literature values in US20230129812A1, “COMPOSITIONS AND METHODS FOR TREATING PULMONARY HYPERTENSION” (Acceleron Pharma Inc., priority 2020, published 2023).

T1: ActA (Homo sapiens, UniProt P08476)
T1 sequence (P08476 311-426): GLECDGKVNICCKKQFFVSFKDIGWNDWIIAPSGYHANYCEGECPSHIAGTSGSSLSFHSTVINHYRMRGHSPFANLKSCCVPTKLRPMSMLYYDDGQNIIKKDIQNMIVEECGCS

T2: GDF11 (Homo sapiens, UniProt O95390)
T2 sequence (O95390 299-407): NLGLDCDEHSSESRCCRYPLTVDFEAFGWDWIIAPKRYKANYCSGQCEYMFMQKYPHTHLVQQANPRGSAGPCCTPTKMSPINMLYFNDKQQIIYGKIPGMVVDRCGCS


Legend:
ActA = target: T1, ActA; set-up: key to ActA binding relative to WT: *: No observed binding; −−: <⅕ WT binding; −: ~½ WT binding; +: WT; ++: <2x increased binding; +++: ~5x increased binding; ++++: ~10x increased binding; +++++: ~40x increased binding; settings: Table 11, reproduced from WO2006/012627; cited from earlier work
GDF11 = target: T2, GDF11; set-up: key: *: No observed binding; −−: <⅕ WT binding; −: ~½ WT binding; +: WT; ++: <2x increased binding; +++: ~5x increased binding; ++++: ~10x increased binding; +++++: ~40x increased binding; settings: Table 11, reproduced from WO2006/012627; cited from earlier work

Molecule	ActA binding relative to WT (ActA)	GDF11 binding relative to WT (GDF11)
R40A: soluble ActRIIB-Fc variant, as reported in WO2006/012627 (protein, left off: a dimerising Fc or GST) SGRGEAETRECIYYNANWELEATNQSGLERCEGEQDKRLHCYASWANSSGTIELVKKGCWLDDFNCYDRQECVATEENPQVYFCCCEGNFCNERFTHLPEA	− (~½ WT binding)	− (~½ WT binding)
D54A: soluble ActRIIB-Fc variant, as reported in WO2006/012627 (protein, left off: a dimerising Fc or GST) SGRGEAETRECIYYNANWELERTNQSGLERCEGEQAKRLHCYASWANSSGTIELVKKGCWLDDFNCYDRQECVATEENPQVYFCCCEGNFCNERFTHLPEA	− (~½ WT binding)	*
K55A: soluble ActRIIB-Fc variant, as reported in WO2006/012627 (protein, left off: a dimerising Fc or GST) SGRGEAETRECIYYNANWELERTNQSGLERCEGEQDARLHCYASWANSSGTIELVKKGCWLDDFNCYDRQECVATEENPQVYFCCCEGNFCNERFTHLPEA	++ (<2x increased binding)	*
R56A: soluble ActRIIB-Fc variant, as reported in WO2006/012627 (protein, left off: a dimerising Fc or GST) SGRGEAETRECIYYNANWELERTNQSGLERCEGEQDKALHCYASWANSSGTIELVKKGCWLDDFNCYDRQECVATEENPQVYFCCCEGNFCNERFTHLPEA	*	*
W78A: soluble ActRIIB-Fc variant, as reported in WO2006/012627 (protein, left off: a dimerising Fc or GST) SGRGEAETRECIYYNANWELERTNQSGLERCEGEQDKRLHCYASWANSSGTIELVKKGCALDDFNCYDRQECVATEENPQVYFCCCEGNFCNERFTHLPEA	*	*
L79A: soluble ActRIIB-Fc variant, as reported in WO2006/012627 (protein, left off: a dimerising Fc or GST) SGRGEAETRECIYYNANWELERTNQSGLERCEGEQDKRLHCYASWANSSGTIELVKKGCWADDFNCYDRQECVATEENPQVYFCCCEGNFCNERFTHLPEA	+	*
D80K: soluble ActRIIB-Fc variant, as reported in WO2006/012627 (protein, left off: a dimerising Fc or GST) SGRGEAETRECIYYNANWELERTNQSGLERCEGEQDKRLHCYASWANSSGTIELVKKGCWLKDFNCYDRQECVATEENPQVYFCCCEGNFCNERFTHLPEA	*	*
D80R: soluble ActRIIB-Fc variant, as reported in WO2006/012627 (protein, left off: a dimerising Fc or GST) SGRGEAETRECIYYNANWELERTNQSGLERCEGEQDKRLHCYASWANSSGTIELVKKGCWLRDFNCYDRQECVATEENPQVYFCCCEGNFCNERFTHLPEA	*	*
